Changes are numbered by the printed parent chain.
T1: activated clotting factor VIII (fVIIIa), P00451
T1 chain: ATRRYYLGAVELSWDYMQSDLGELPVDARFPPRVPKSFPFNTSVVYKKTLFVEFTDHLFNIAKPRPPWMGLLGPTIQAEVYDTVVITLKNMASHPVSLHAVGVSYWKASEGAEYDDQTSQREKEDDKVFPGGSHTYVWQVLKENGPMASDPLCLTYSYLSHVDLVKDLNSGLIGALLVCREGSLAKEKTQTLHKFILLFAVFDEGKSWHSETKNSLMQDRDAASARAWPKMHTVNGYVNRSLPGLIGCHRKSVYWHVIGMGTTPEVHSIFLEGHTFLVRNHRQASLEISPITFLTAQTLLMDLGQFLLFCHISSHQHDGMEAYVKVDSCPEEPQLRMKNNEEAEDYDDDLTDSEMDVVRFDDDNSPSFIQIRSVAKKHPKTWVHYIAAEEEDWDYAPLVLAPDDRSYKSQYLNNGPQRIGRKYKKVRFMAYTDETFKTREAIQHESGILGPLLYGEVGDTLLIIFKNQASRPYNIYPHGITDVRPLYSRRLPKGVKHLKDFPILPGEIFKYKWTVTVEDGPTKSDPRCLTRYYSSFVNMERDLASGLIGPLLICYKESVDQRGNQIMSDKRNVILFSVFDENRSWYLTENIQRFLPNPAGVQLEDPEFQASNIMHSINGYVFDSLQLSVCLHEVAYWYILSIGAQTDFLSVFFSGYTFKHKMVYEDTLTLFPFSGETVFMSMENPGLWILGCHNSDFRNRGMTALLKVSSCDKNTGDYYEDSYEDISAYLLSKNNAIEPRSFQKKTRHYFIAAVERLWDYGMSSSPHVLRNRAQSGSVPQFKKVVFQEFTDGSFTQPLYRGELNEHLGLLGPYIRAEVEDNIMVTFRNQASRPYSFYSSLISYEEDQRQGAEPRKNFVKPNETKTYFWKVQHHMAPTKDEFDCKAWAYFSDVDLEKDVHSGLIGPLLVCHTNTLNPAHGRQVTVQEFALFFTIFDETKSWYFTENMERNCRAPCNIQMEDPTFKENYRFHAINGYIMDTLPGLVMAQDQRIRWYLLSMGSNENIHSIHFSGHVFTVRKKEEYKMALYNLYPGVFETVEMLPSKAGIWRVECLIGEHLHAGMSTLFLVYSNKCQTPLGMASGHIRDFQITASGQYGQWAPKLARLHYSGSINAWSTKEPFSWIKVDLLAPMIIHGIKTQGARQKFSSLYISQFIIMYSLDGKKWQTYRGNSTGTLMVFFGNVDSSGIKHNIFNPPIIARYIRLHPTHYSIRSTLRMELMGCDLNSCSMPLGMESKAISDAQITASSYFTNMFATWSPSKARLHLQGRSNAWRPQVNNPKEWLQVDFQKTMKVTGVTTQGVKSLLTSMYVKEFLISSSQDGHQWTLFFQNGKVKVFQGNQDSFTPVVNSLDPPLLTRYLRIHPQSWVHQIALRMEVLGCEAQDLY

B1: fIX optimized sequence Beta (no Padua) (protein)
chain: YNSGKLEEFVQGNLERECMEEKCSFEEAREVFENTERTTEFWKQYVDGDQCESNPCLNGGSCKDDINSYECWCPFGFEGKNCELDATCNIKNGRCEQFCKNSADNKVVCSCTEGYRLAENQKSCEPAVPFPCGRVSVSQTSKLTRAETVFPDVDYVNSTEAETILDNITQSTQSFNDFTRVVGGEDAKPGQFPWQVVLNGKVDAFCGGSIVNEKWIVTAAHCVETGVKITVVAGEHNIEETEHTEQKRNVIRIIPHHNYNAAINKYNHDIALLELDEPLVLNSYVTPICIANKEYTNIFLKFGSGYVSGWGRVFHRGRSASVLQYLRVPLVDRATCLRSTKFTIYNNMFCAGFHEGGRDSCQGDSGGPHVTEVEGTSFLTGIISWGEECAMKGKYGIYTKVSRYVNWIKEKTKLT
B2: fIX optimized sequence Gamma (with Padua) (protein)
chain: B1 chain with E277K, R338L
B3: fIX optimized sequence Delta (no Padua) (protein)
chain: B1 chain with E277K, V280T, K293R
B4: fIX optimized sequence Gamma (no Padua) (protein)
chain: B1 chain with E277K
B5: fIX optimized sequence Beta (with Padua) (protein)
chain: B1 chain with R338L
B6: An96 fIX (ancestral sequence 96 factor IX) (protein)
chain: YNSGKLEEFVRGNLERECIEEKCSFEEAREVFENTEKTTEFWKQYVDGDQCESNPCLNGGSCKDDINSYECWCRFGFEGKNCELDATCSIKNGRCKQFCKKSADNKVVCSCTEGYRLAEDQKSCEPAVPFPCGRVSVSHTSKKLTRAETIFSNMDYENSTEAETILDNVTQSTQSFNDFTRVVGGENAKPGQFPWQVLLNGKIDAFCGGSIINEKWVVTAAHCIEPGVKITVVAGEHNIEKTEPTEQKRNVIRVIPHHNYNATINKYSHDIALLELDKPLTLNSYVTPICIANREYTNIFLKFGSGYVSGWGRVFNRGRSASILQYLRVPLVDRATCLRSTKFTIYNNMFCAGYHEGGKDSCQGDSGGPHVTEVEGTSFLTGIISWGEECAMKGKYGIYTKVSRYVNWIKEKTKLT

Target: T1, activated clotting factor VIII …

fIX activity (one-stage APTT-dependent coagulation assay), exhibits higher fIX activity:
B1
B2
B3
B4
B5
B6

From US20230374484
